According to patent US10662230B2, “Cyclic RGD cell-binding motif and uses thereof” (Spiber Technologies AB, priority 2015, dated 2020):

Assays:
[1] = tested on: Human dermal microvascular endothelial cells (EC); assay: Early attachment assay, endothelial cells on silk films; type: cell-based; conditions: 1 h adhesion to film
Experimental: Human dermal microvascular endothelial cells (EC), (HDMEC, PromoCell GmbH, Germany) isolated from dermis from adult donor were grown in culture flasks coated with gelatin (Sigma Aldrich) in complete endothelial cell media MV, containing 5% fetal bovine serum (PromoCell GmbH, Germany).
(§1) Cells were harvested at passage 3-8, seeded at 20 000/cm^2 and allowed to adhere to the films or controls for 1 h in a cell incubator before gentle washing twice with pre-warmed phosphate buffered saline (PBS) followed by 10 min fixation with 96% ethanol. After three washings in water, cells were stained for 30 min with 0.1% Crystal Violet in H2O. Plates were dried after extensive washing in water.
(§2) Attachment and morphology of cells bound to the films obtained in Example 3 were documented by taking micrographs at 2× and 10× magnification in an inverted bright field microscope. The color was then dissolved in 40 μL 20% acetic acid for 10 min, and 35 μL of the solution was transferred to a 384-well plate for optical density measurement at 595 nm (TECAN Infinite M200). Wells with cells fixed without pre-washing was used as positive control. Wells with no cells were used as blank. Experiments were run in hexaplicates and repeated three times.
First, we wanted to investigate how well adherent cells attach and spread on the FNCC-silk (FNCC-4RepCT, SEQ ID NO: 13) compared to linear RGD proteins (RGD-4RepCT, SEQ ID NO: 16) and WT silk proteins (4RepCT, SEQ ID NO: 2) obtained in Example 3. Silk films of the three different variants were prepared in cell culture plates, and human primary endothelial cells (EC), mesenchymal stem cells (MSC) or keratinocytes (KC) were allowed to adhere for 1 h before fixation and staining.

[2] = tested on: Human mesenchymal stem cells (hMSC); assay: Early attachment assay, mesenchymal stem cells on silk films; type: cell-based; conditions: MSC, 1 h adhesion to film
Experimental: Human mesenchymal stem cells (hMSC, Gibco) from bone marrow were grown in culture flasks coated with CELLstart (Gibco) in complete StemPro MSC serum free medium CTS (Gibco) containing […] fibroblast growth factor […] (Gibco) and 2 mM Glutamax (Gibco).
as §1
as §2, with “times. […]” for “times.”

integrin α5β1 = molecular target: T1, integrin α5β1 (Homo sapiens, UniProt P05556+P08648); assay: Engagement of integrin α5β1 in KC (SNAKA-51/HUTS-4 staining); type: cell-based; conditions: KC adhering for 3 h
T1 construct: endogenous in cells; host or cells: human primary keratinocytes (KC)
Experimental: Primary antibody were used at the following concentrations in 1% BSA: mouse anti human vinculin (Sigma V9131) at 9.5 μg/ml, mouse-anti human beta1-integrin (activated conformation, clone HUTS-4) at 3.3 μg/mL, or mouse-anti human alpha5-integrin (ligand bound conformation, clone SNAKA-51) at 2.5 μg/mL, both Millipore.
Since the integrin α5β1 is known to selectively bind to fibronectin, we decided to investigate if this integrin is involved in the binding of KC to FNCC-silk (SEQ ID NO: 13). To do this, we selected two monoclonal antibodies, developed to specifically recognize the ligand bound conformation of α5 integrin (SNAKA-51) and the activated conformation of β1 integrin (HUTS-4), respectively, and used them in combination for staining of KC adhering to FNCC-silk for 3 h, in combination with staining with phalloidin for F-actin, as set out in Examples 6-7.

[3] = tested on: primary keratinocytes (NHEK); assay: Cell viability analysis with Alamar Blue; type: cell-based, human; conditions: seeding 3 500 cells/cm^2, day 3 and day 6
Experimental: For microscopic studies, the proteins were casted as films in chamber glass slides (LabTekII). For Alamar blue experiments, where whole well coverage is desired, the cell culture wells were coated with a covering protein solution of 0.3 mg/ml for 2 h before the liquid was removed. Films and coated surfaces were allowed to dry over night at 25° C. and 30% rh under sterile conditions, then washed twice with sterile 20 mM phosphate buffer, pH 7.4, and pre-incubated with complete cell culture medium for 1 h at 37° C. with 5% CO2 before cell seeding.
Cell growth of primary keratinocytes (NHEK) after initial low seeding density 3 500 cells/cm^2 on wells coated with films of WT-silk (SEQ ID NO: 2) or FNCC-silk (SEQ ID NO: 13) in 96-well plates was monitored with Alamar Blue cell viability assay (Molecular Probes) every third day during the culture period. After 4 h incubation with Alamar blue (diluted 1:10 in cell culture medium), fluorescence intensity of 90 μL supernatants from the cultures was measured with a fluorescence plate reader (CLARIOstar, BMG Labtech) using excitation at 544 nm and emission at 595 nm. Two independent experiments were performed where films were analysed in hexaplicates. Fluorescence intensities, correlating the number of living cells in each well, were plotted over time to yield growth profiles of cells seeded on silk with different cell binding motifs.

HaCaT Keratinocytes = assay: Cell culture on FNCC silk coatings; type: cell-based; conditions: coating 0.1 mg/ml
Experimental: (§3) After purification, solutions of FNCC-silk protein (SEQ ID NO: 13) were used to coat cell culture plates (Sarstedt, hydrophobic plates for suspension cells). Briefly, the protein solutions were diluted to 0.1 mg/ml in Tris buffer, and allowed to incubate at room temperature for 30 minutes before removal and wash.
(§4) Cells were harvested using trypsination (TrpLE) and seeded onto the FNcc-silk coatings at suitable cell density (3-10 000 cells/cm2). Cell growth was monitored with Alamar Blue cell viability assay (Molecular Probes) regularly (every 2-3 day). At the end point, after 7-14 days, Live/dead staining was performed.

[4] = tested on: Human Dermal Microvascular Endothelial Cells; assay: Cell culture on FNCC silk coatings; type: cell-based; conditions: coating 0.1 mg/ml
Experimental: as §3, §4

Human Dermal fibroblasts = assay: Cell culture on FNCC silk coatings; type: cell-based; conditions: coating 0.1 mg/ml
Experimental: as §3, §4

[5] = tested on: Human Mesenchymal stem cells; assay: Cell culture on FNCC silk coatings; type: cell-based; conditions: coating 0.1 mg/ml
Experimental: as §3, §4

[6] = tested on: Human Skeletal Muscle Satellite Cells; assay: Cell culture on FNCC silk coatings; type: cell-based; conditions: coating 0.1 mg/ml
Experimental: as §3, §4

[7] = tested on: MIN6-m9 pancreatic cell line; assay: Cell culture on FNCC silk coatings; type: cell-based; conditions: coating 0.1 mg/ml
Experimental: as §3, §4

[8] = tested on: Mouse Mesenchymal stem cells; assay: Cell culture on FNCC silk coatings; type: cell-based; conditions: coating 0.1 mg/ml
Experimental: as §3, §4

T1 sequence (P08648 42-894 limits assumed): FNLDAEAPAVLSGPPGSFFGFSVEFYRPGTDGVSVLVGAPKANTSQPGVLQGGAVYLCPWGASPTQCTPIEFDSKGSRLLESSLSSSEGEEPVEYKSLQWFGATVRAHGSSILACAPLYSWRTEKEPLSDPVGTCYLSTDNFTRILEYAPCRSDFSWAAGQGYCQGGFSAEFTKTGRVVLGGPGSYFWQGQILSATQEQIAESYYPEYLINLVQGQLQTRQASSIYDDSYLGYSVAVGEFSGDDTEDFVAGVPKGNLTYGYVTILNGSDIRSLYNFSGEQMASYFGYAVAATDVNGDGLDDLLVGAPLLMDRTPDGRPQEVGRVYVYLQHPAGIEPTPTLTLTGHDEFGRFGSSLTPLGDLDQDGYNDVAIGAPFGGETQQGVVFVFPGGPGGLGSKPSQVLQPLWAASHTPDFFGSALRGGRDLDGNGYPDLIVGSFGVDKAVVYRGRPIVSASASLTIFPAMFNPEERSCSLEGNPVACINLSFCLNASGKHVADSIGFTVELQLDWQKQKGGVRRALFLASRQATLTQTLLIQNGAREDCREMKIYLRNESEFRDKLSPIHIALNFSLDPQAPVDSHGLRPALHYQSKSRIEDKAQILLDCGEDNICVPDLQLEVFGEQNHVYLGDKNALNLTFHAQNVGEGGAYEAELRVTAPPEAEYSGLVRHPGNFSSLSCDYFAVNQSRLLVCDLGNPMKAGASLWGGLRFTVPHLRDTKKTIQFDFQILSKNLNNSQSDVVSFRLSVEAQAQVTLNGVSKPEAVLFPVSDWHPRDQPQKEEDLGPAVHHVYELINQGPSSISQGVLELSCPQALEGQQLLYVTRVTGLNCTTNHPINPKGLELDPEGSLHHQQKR
T1 sequence (P08648 895-1049 partner limits assumed): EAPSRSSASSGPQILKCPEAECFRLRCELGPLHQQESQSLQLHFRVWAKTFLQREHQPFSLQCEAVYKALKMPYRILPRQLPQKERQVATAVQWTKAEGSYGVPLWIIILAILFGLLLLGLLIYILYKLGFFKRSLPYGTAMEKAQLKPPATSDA
T1 sequence (P05556 21-798): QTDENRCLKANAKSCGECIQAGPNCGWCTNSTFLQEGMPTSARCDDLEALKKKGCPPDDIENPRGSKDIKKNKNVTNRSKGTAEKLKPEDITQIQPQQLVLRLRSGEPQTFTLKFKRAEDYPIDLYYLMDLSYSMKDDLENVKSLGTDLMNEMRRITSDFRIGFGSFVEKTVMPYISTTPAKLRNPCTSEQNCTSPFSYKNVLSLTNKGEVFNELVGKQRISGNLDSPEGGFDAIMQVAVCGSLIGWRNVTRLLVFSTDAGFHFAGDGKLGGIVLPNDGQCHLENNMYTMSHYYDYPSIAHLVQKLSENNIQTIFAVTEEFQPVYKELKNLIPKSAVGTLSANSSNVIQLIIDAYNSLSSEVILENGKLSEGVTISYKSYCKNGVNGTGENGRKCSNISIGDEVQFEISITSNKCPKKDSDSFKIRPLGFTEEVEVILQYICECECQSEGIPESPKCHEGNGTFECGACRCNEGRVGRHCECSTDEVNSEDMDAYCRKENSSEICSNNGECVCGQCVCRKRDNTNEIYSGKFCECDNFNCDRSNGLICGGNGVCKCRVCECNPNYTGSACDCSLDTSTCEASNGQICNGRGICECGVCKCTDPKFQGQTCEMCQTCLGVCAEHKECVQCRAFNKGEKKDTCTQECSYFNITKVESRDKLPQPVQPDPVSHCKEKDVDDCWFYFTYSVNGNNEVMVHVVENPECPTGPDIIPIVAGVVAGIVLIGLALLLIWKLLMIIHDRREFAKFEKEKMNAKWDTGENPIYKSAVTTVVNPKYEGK

B1: FNCC-silk: recombinant spider silk protein 4RepCT with N-terminal cysteine-looped RGD motif CTGRGDSPAC (SEQ ID NO: 10) (protein)
chain: GPNSCTGRGDSPACGSASGQGGYGGLGQGGYGQGAGSSAAAAAAAAAAAAGGQGGQGQGGYGQGSGGSAAAAAAAAAAAAAAAGRGQGGYGQGSGGNAAAAAAAAAAAAAAAGQGGQGGYGRQSQGAGSAAAAAAAAAAAAAAGSGQGGYGGQGQGGYGQSSASASAAASAASTVANSVSRLSSPSAVSRVSSAVSSLVSNGQVNMAALPNIISNISSSVSASAPGASGCEVIVQALLEVITALVQIVSSSSVGYINPSAVNQITNVVANAMAQVMG
modifications: cyclic disulfide loop; Fusion protein; DISULFID (5)..(14)
attachment seen in micrographs ([1]; crystal violet staining): clear improvement of attachment is seen on the FNCC films compared to both RGD and WT | OD of crystal violet dissolved from adhered cells (number of bound cells) ([1]; seeding 20 000/cm2): significantly more cells had bound to the FNCC-silk after 1 h compared to WT silk | OD of crystal violet dissolved from adhered cells (number of bound cells) ([1]; seeding 20 000/cm2, listed as FNCC): Significantly more EC had attached to FNCC also compared to RGD silk | attachment seen in micrographs ([2]; crystal violet staining): clear improvement of attachment is seen on the FNCC films compared to both RGD and WT | OD of crystal violet dissolved from adhered cells (number of bound cells) ([2]; seeding 20 000/cm2, serum-free): significantly more cells had bound to the FNCC-silk after 1 h compared to WT silk | staining for ligand bound α5 integrin and activated β1 integrin (integrin α5β1): week but distinct staining pattern resembling the pattern seen when staining for vinculin | level of viable cells (Alamar Blue fluorescence) [3]: increased level of viable cells on FNCC-silk compared to WT-silk | growth profile (Alamar Blue) (HaCaT Keratinocytes; 7-14 days): positive growth profile | viable cells at the end point (Live/dead staining) (HaCaT Keratinocytes; after 7-14 days): > 80% | growth profile (Alamar Blue) ([4]; 7-14 days): positive growth profile | viable cells at the end point (Live/dead staining) ([4]; after 7-14 days): > 80% | growth profile (Alamar Blue) (Human Dermal fibroblasts; 7-14 days): positive growth profile | viable cells at the end point (Live/dead staining) (Human Dermal fibroblasts; after 7-14 days): > 80% | growth profile (Alamar Blue) ([5]; 7-14 days): positive growth profile | viable cells at the end point (Live/dead staining) ([5]; after 7-14 days): > 80% | growth profile (Alamar Blue) ([6]; 7-14 days): positive growth profile | viable cells at the end point (Live/dead staining) ([6]; after 7-14 days): > 80% | growth profile (Alamar Blue) ([7]; 7-14 days): positive growth profile | viable cells at the end point (Live/dead staining) ([7]; after 7-14 days): > 80% | growth profile (Alamar Blue) ([8]; 7-14 days): positive growth profile | viable cells at the end point (Live/dead staining) ([8]; after 7-14 days): > 80%
